Test: soluble on expression in E. coli; label from the status in PepcDB or PDB records

Sequence	soluble on expression in E. coli
GSAMASNAVLYKSNHNVVYSCKYHIVWCPKYRRKVLVGAVEMRLKEIIQEVAKELRVEIIEMQTDKDHIHILADIDPSFGVMKFIKTAKGRSSRILRQEFNHLKTKLPTLWTNSCFISTVGGAPLNVVKQYIENQQNSNRPKQKEKWKSYVDNLQTKAL	soluble
MGSDKIHHHHHHMRALATWQDKCIDSQLLVASLVGLFKQRDLDCDKLLRGTGIFITDIRKPDHLISPKQLARLLDNALAQWPNGDLSFLLGQLWFPSQSGVLTSGMFCARDVKELIYFWHKYHWLTQPWLQTWRWQGEHEWHFLLSLDLGMHRHKQFFIELSLSSFMACFKQLLGQAWRGSICFPYPAPDNLAHYYKYFGMDLRFDAPLCRISMAKNLLRQPSLFANQSLLYSQPENVDTHCAEDAQLPSASQSCIHGEAASPALDIQPLQLPLRPQLNMAKAARQALFAQEFRLGLAAGIRLKLMRRTLSLPEMAQILEISPATLKRRLGEMGLNYGQLADESRLIRALYFLAEPEQDAHSIASSLSFSDASNFRRSFKRWTGQLPGYFRYWLA	not soluble
KDYDAYLSYTKVDPDQWNQETGEEERFALEILPDMLEKHYGYKLFIPDRDLIPTGTYIEDVARCVDQSKRLIIVMTPNYVVRRGWSIFELETRLRNMLVTGEIKVILIECSELRGIMNYQEVEALKHTIKLLTVIKWHGPKCNKLNSKFWKRLQYEMPF	soluble
MLWNVDLLKTLNIMYNKILFMNNSFFGRFKKNDNQVIEEQPPVWEDRIFWVETLQKIAFPVLNNLKKESLKKNMSIESFSSESNKFAHLGAFSNVFNGIAPWLELGPDESEEGKIREKYIVLTLKAISNAVNPNSKDYILFTEPKQSLMSMALFAQGLLRSKTQIWNNLPMDVQARVIYELKNTRIIAPFENHWLLFTSMIEATLLEFTGECDRERLTYSIRKFRDEWYLGDAIYADGPEFDVNYYNSIFIHPMLNDILKVMRKYGINEGELLDVQLMRSSRYASQLERIISPEGTYPLLGKSMAYRTGIFHLLAQAALFKILPRNMETSQVRSALTKVLRTQFGGHQNFDNKGWLTIGLNGCQAEIAEKDINTGSLYGCCAIFLPLGLSFNDSFWVGPFEEWTTLKAWNGNPVEPDQSIDFLEHHHHHH	not soluble
GMRNMQEKGVSEKEILEELKKYRSLDLKYEDGNIFGSMCSNVLPITRKIVDIFLETNLGDPGLFKGTKLLEEKAVALLGSLLNNKDAYGHIVSGGTEANLMALRCIKNIWREKRRKGLSKNEHPKIIVPITAHFSFEKGREMMDLEYIYAPIKEDYTIDEKFVKDAVEDYDVDGIIGIAGTTELGTIDNIEELSKIAKENNIYIHVDAAFGGLVIPFLDDKYKKKGVNYKFDFSLGVDSITIDPHKMGHCPIPSGGILFKDIGYKRYLDVDAPYLTETRQATILGTRVGFGGACTYAVLRYLGREGQRKIVNECMENTLYLYKKLKENNFKPVIEPILNIVAIEDEDYKEVCKKLRDRGIYVSVCNCVKALRIVVMPHIKREHIDNFIEILNSIKRD	soluble
MEKTRANSHLRSQPIDWTIEEVIQYIESNDNSLAVHGDLFRKHEIDGKALLRLNSEMMMKYMGLKLGPALKICNLVNKVNGRDHHHHHH	soluble
MSDNAQLSGLCDRFRGFYPVVIDVETAGFNAKTDALLEIAAITLKMDEQGWLMPDMTLHFHVEPFAGANLQPEALAFNGIDPSNPLRGAVSEYEALHAIFKMVRKGIKDSGCSRAIMVAHNATFDHSFMMAAAERASLKRNPFHPFVTFDTAALSGLALGQTVLSKACLAAGMEFDGEKAHSALYDTERTAVLFCEIVNRWKRLGGWPLPLPTDK	not soluble
SGGLLIASAHFGAYVCGTDIDYNTVHGLGKASRKNQKWRGPDENIRANLRQYGLEKFYLDVLVSDASKPSWRKGTYFDAIITDPPYGIRESTRRSGSQKDIPKGIEKCPESHVPVSLSYHLSDMFFDLLNFAAETLVLGGRLVYWLPVYTPEYTEEMVPWHPCLRLISNCEQKLSSHTARRLITMEKVKEFENRDKYSHLLSDHFLPYQGHNSFREKYFSGVTKRIAKEEKCSHE	not soluble
MAHHHHHHMLKECDFFSDSYGCIITKSIGYQAPFPLVRLSNGRSTKIPDGACVQGACFVSFGADHTGSRGRLLTMDVSARASSVSFLQLLSSSCPPVTLEPEVEYVSKIETTETASAVVTRGGGNRWSTSVYVQGEDVPDTAYSRRVHFHRASVASLFGFSLWLMEVAKDDYGAQAVHRYSLSTALTGGVSESTLVSANLGRPLDIIALSEDTALVLGTNGVAMADRRQRASDILFFSNLLNGGATGDRQLLTFGEDYTLRAYDLRDVSAPLFQATSATYLRIKSEIDTRASLLVTSDITGVFDVLHVTTVASLQHSGDTVLDAAVLPSRHNGVRVCTSTGSGMIYDWTVT	not soluble
MPAHQLSDDRAIQGTFMRKRRDSLASVVARDLAGRIERGDYAVGDKIPIEAQLCEMYNVSRTVVREAIATLRSEGLVTSRHGVGVFVEERGNPALSITREAAGELSEVLELLELRLGVEVEAAGLAARRATAEDLRQIREVLEKTDDLEAFAEHRRELDYAFHLAIARASGNSWMPKFMDFIGPVIIPRSQLLHDPQSGITGDYLRQMVEEHRQIVEAIAAGEAAAAQEAMRMHLSTSLERYRRRLTDA	not soluble
GMTDWQQALDRHVGVGVRTTRDLIRLIQPEDWDKRPISGKRSVYEVAVHLAVLLEADLRIATGATADEMAQFYAVPVLPEQLVDRLDQSWQYYQDRLMADFSTETTYWGVTDSTTGWLLEAAVHLYHHRSQLLDYLNLLGYDIKLDLFE	soluble
MGHHHHHHSHMDTPENVLQMLEAHMQSYKGNDPLGEWERYIQWVEENFPENKEYLITLLEHLMKEFLDKKKYHNDPRFISYCLKFAEYNSDLHQFFEFLYNHGIGTLSSPLYIAWAGHLEAQGELQHASAVLQRGIQNQAEPREFLQQQYRLFQTRLTETHLPAQAR	not soluble
MRKNVSDLEYTTWFAPVKPLGVQEGSLLLGVRNSFTKDWFRDHYLELLLAALRSLGAEHPQVEFQVLPAAQDALLLPNDPPPAPEAAAPTPKTKAAPTPPPSTPGDNRKTLNPKYTFENFVVGPNNNLAHAAALAVAESPGKAYNPLFIYGDVGLGKTHLMHAVGHYLAERFPEKRIEYVSTETFTNELINAIRDDKTTQFRNRYRSVDLLLVDDIQFLAGKERTQEEFFHTFNALYESNKQIILSSDRPPKDIQTLEGRLRSRFEWGLITDIQSPEYETRVAILKMNAEQGHITIPQEVLELIARQVTSNIRELEGALMRVVAFASLNNVPFSRAAAAKALSNVFAPQEAKVEMTDVLRQVAAHYGTTPDLIRGSGRARDIVVPRQVAQYLIRALTDHSLPEIGQFFGRDHSTVMHAVSKITEQMGKDPELAATVNTLRNRIQGKEEEEEVGALEHHHHHH	not soluble
MKLESLVEEARQCQDRTVAVAAAEDEEVIEAVAMALEHRLGRFVLYGDRERLGRLLKEKGCARFSDVDVVHANSIGQAAELAVRAVHLNEADALMKGHVPTATLLKAVLNKEYGLRTGKVLSHVAVFEVPEFDRFVIVTDAAMNIAPDLEQKAQIVNNAVSIARSIGIERPKVAALAAVETVNPAMPATVDAAALAMMQKRGQIEHCLLDGPLALDNAVSLAAAKHKRIESEVAGQADILLVPDIESGNMLYKSLVYFANARVGAVIAGAKAPIVLTSRADSAESKLYSLALAICSAAK	not soluble
MSLGIYMRDDILDIITLTTDFGTNEGYVGAMKGRILNILKKYNKDAKIIDISHEIKPFNIYHGAYVLLTAIPYFPPSVHVAVIDPTVGSERKSIVIETKSGYYLVGPDNGLFTYVAEKLGIKRIIKIDEERYKPSSTFHGRDVYAVVGAEILINNGYDGEELDEMVKIDETKKRVIHIDRFGNIITNIKKDEVTFKYYDTIMIKIRHKNGIEKIIKCKFVKSYFEEKNNFICLINSEGFLEISKFMDNASKLLNVDYLDEIEIEGGSHHHHHH	soluble
MPFAHKVVMRTALYWEPLEDGKVKCKLCPLNCIINPEKRGSCKVRINIDGKLYTLNYGKVSSIALDPIEKKPLFHFWPGSCAFSIGTVGCNMHCKHCQNWEISQADESFPYLQDATPESIVRLARHYECESIAYTYNEPTIWYEFVLDTAKLAKKEGLNNILVTNGYINEEPFRELAKYIDAMNIDIKAFNDKFYMKISSVPSGEPSRRTAVIAKKEFGIHVELTYLIIPTLNDNEEEIRRFARWVVEELGDDTPVHFSRFFPHYKLLNLPPTPIQTLEKAYKIAKEEGLKFVYLGNVPGHEGENTYCPRCGKLLIERWGFEILRYEIKDGKCKYCGEQIPIVGEYQRKTYRGMWW	not soluble
MSLQRKRIVRERVVYVLDYMREGNPLDKHKFHRDKPLIQAVGEDYFLLLELTPLSYNLDFLPEDKIELDSNSSVKVDAHISYEDLTSVSRDNLPKILYKIVFEKEKVFVEIFNKAEPLTLRLHALELLPNIGKKTLRIILEERKKKPFESFKDIESRIGVKDVASILVERIIKEMQGGEKYYLFVYPLIPDENKRLEQQFIYVGYIEKLKEGHHHHHH	soluble
MAHPQEIREKLRRLYVSGEQTLETAALMCEIPQTTARAWKRADKEKGDDWDKMRAAYTLAGGGIEDLSRAMLAGFMVQYNSTMTMLQDSSTEDLPPSDRAKLLASLADAFTKTVSANARVMPETSKLATALELIEFLMAFVQEKHPKHLPAFVEVLEPFGVEVEKKFG	not soluble
MNIPKVQFNPKVHKNIGIEIIELSDIYKRSDDDLENFIAKPHRIKFHNILYITQGRGTHFIDFNTYTTQAGSVVFINKNQVHAFDLINQPQGKLIIFTDEYLDTILTTIKTPLSAHNYLLTSYSPTFSLSKKIRNTCDVLLTEIEKEYQVKDPNLNFLNLIFSAVLTKLSSERTRSFEQYLSESRTEKFMTFIELLEVNYTNTRDAKIYADMLHMTYKSLNQICKLATKQTTKQLIDAYIILEAKRKLSIENIRVQQLADELGFDEVTNFVKYFKKNTLLTPSQFKKLNQG	not soluble
MEIDWLNAIPDSEDSEEDEEERQERARLLKEKEEEREACKKRYLERIEREEAQRFGKQFKIDPLTFAERLERKLIPAEKKQRYREFIPCVVDHFGGTDVHFVKAMESIKTENQLLDFLTAAHKPLIEQTEDSVLHDWLAEFYKETVTSLLEMTSITDHDLKCFKVGNVFDEVRTNAIQKKVQKMEMENFAERVREAKIKEAEERKATAEATRDVLESLEGMTLSHVKHDELEDELNTIALEELHSTTRDTSPPRTRLSTRAQSQLNAMVKHLFVPAAPTTSTEVPMEMDKDDDEMDAYDDSDLKILFSSTTKESLKMEMGEENDECNFEPSQVSKYPSFQASSQFDETRRYDYDEEGDNKELARLRRPTWRKILNYEKRIGTNFHRFTNAENANLWRRNLYEDKRKKTSKVQFVDYDSPLNKMRLFVRPNEQFFNADDGPMTDRIDFSLSDGFNVLATRKIMSPLVCGSNYDCEFMARTREGPQYLVRKTQSWMHSYCGNILGRFWYLRDRHADKYPGVKDSNYDQKRRQNFGLLRYYTLEELIEVFGLLLPDVQIAMRRGVRRENMPVSTVVKLKEKDREAVESPVQGVLLLTDWRLVHLFDNTAIVNAIIHYFPTNLGGVFFEAMTEYLTELLLDNTIEFHTIIFAFGGTPTFKKQDFLAFWKKLIVRTTQSIDVFWMAQDWCDGLNSTQEEIDQLNEFNHYVEQMFTMMRKNGNINYNYCDIRKQYNIPSLDPSFNRPNDFLLLEPIYRAYINHFVDECNCYLKGPFVKCQPRVHNGYAQRNGTKLEFSK	soluble
MADQKEASEAAKNREIKISSSDDEIFLVPRNVIRLSNTLNTLLVDLGLDDDEGTNAEPIPVQNVTASILKKVINWCTKHQSDPIPTEDSEKKTDGSIQDWDKKFLDIDQGTLFELILAANYLDIKGLLDVACQSVANMIKGKSPDEIRRAFNIKDDFTAEEREQIRKENAWCDD	soluble

— the DeepSol protein solubility set
